For data set [1], the target named is T1, Ssd1 ΔN338 (Saccharomyces cerevisiae (S288C/BY4741 …, UniProt P24276 339-1250)).
T1 sequence: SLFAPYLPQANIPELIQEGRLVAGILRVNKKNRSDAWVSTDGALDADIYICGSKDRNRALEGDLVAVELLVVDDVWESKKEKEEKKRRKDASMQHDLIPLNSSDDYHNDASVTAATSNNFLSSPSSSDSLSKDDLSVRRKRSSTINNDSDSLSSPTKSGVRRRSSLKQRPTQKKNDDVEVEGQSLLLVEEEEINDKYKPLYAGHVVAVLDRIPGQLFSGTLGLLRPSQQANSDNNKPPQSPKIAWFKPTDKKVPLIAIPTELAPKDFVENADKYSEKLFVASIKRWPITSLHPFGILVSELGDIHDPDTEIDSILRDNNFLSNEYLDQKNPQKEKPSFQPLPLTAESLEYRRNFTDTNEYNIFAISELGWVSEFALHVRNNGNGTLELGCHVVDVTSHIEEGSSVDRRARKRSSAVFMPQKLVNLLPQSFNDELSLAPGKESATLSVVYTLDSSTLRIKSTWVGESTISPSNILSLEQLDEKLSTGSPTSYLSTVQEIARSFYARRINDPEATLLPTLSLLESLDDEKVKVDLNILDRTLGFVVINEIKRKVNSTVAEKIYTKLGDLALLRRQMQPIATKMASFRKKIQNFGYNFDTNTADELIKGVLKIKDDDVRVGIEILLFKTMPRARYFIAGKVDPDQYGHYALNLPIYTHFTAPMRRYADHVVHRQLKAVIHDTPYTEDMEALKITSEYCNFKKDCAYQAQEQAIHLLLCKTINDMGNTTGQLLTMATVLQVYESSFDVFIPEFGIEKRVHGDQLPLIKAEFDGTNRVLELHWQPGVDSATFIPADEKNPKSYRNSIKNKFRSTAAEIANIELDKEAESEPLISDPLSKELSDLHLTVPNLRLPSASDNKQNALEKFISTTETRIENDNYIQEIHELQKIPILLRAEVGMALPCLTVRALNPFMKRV
Put plainly: fluorescence anisotropy; Anisotropy: 20 nM RNA, 20 mM HEPES pH 7.5, 150 mM NaCl, 1 mM DTT, 0.01% Tween 20, 15 and 30 min on ice; EMSA: 0.5 uM RNA, 20 mM HEPES pH 7.5, 150 mM K acetate. Conditions: protein: recombinant, tags: His tag cleaved with 3C protease.

In data set [2] the target is T1, Ssd1 ΔN338. The data set is described as above. The following applies: protein: recombinant; tags: His tag cleaved with 3C protease; label: 5'-Cy3.
Data set [3] deals with T1, Ssd1 ΔN338. The data set can be described thus: EMSA; 5 mM Mg acetate; no significant binding; Anisotropy: 20 nM RNA, 20 mM HEPES pH 7.5, 150 mM NaCl, 1 mM DTT, 0.01% Tween 20, 15 and 30 min on ice; EMSA: 0.5 uM RNA, 20 mM HEPES pH 7.5, 150 mM K acetate. Conditions: protein: recombinant; tags: His tag cleaved with 3C protease; label: 5'-DY681.

Regarding CAACUAAUUUUCACUCCUUUAA (ssRNA) [DUO-21mer], in the data set with Ssd1 ΔN338 [1] (label: 5'-Cy3), the Kd stood at 36 nM.
For the molecule AUUUUCACUCCUUUAA (ssRNA) [SEE-15mer], the Kd with Ssd1 ΔN338 [1] (label: 5'-DY681 (EMSA), 5'-Cy3 (anisotropy)) is 166 nM.
CUUCCAACUAAUUUUUAUCCCUCUAA (ssRNA) [SUN4-DUO_Mut2]: the Kd with Ssd1 ΔN338 [1] (label: 5'-Cy3) was 104 nM.
With CUUCCGGCUAAUUUUCACUCCUUUAA (ssRNA) [SUN4-DUO_Mut1], the binding signal with Ssd1 ΔN338 [2] was ~2 fold reduction in affinity vs DUO-25mer.
Take CUUCCAACUAAUUUUCACUCCUUUAA (ssRNA) [DUO-25mer]: in the data set with Ssd1 ΔN338 [1] (label: 5'-Cy3 (anisotropy)), the Kd turned out to be 8 nM.
For ACUAAUUUUCACUCCUUUAA (ssRNA) [DUO-19mer], the equilibrium dissociation constant (Kd) with Ssd1 ΔN338 [1] (label: 5'-Cy3) was found to be 42 nM.
With CUUCCGGCUAAUUUUUAUCCCUCUAA (ssRNA) [SUN4-DUO_Mut3], the binding signal with Ssd1 ΔN338 [2] was ~10 fold further loss of affinity (vs Mut2).
On to AGAACUCUUCCAACUA (ssRNA) [CCACCU-16mer (CCAACU motif)], for which the binding result with Ssd1 ΔN338 [3] is listed as “no binding”.
As for UAAUUUUCACUCCUUUAA (ssRNA) [DUO-17mer], in the data set with Ssd1 ΔN338 [1] (label: 5'-Cy3), the Kd is 124 nM.

Source of the values: PMC8934651, “Yeast Ssd1 is a non-enzymatic member of the RNase II family with an alternative RNA recognition site”.
